Measured values reported in PMC6704074, “Structural basis for lamin assembly at the molecular level” (Nature Communications, 2019).
Positions count from the first letter of the chain named. Names may count otherwise. “And” between values parts separate entries of the source, which are not always exact repeats. Identical values can stand only once.

T1: His-tagged lamin 300 fragment, wild type (human lamin A/C residues 1–300) (human, UniProt P02545 1-300)
T1 construct: lamin A/C, human, residues 1-300; The plasmid also encodes a TEV site between the tag and the lamin residues (pProEx-HTa); also called His-lamin; His-tagged wild-type lamin 300 fragment; source: E. coli BL21 (DE3), purified (Ni-NTA, HiTrap Q, SEC; no TEV treatment); not shown: His tag, N-terminal, kept
T1 sequence (looked up): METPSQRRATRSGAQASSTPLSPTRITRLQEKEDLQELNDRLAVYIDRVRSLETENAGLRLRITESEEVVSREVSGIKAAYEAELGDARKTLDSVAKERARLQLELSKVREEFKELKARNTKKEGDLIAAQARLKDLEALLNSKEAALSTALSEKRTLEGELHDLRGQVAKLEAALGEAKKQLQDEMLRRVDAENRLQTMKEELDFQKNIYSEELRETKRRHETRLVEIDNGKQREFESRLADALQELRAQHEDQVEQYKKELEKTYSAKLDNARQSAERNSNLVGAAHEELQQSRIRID

T2: His-tagged lamin 300 fragment L59R mutant (human, UniProt P02545 1-300, L59R)
T2 construct: lamin A/C, human, residues 1-300, with the dilated cardiomyopathy mutation L59R; source: E. coli BL21 (DE3), purified (Ni-NTA, HiTrap Q, SEC; no TEV treatment)
T2 sequence (looked up): T1 sequence (looked up) with L59R

B1: selenomethionine-labelled lamin A/C fragment (residues 1–300), His tag cleaved (domain or fragment, human, UniProt P02545 1-300, looked up)
chain: T1 sequence (looked up)
modifications: selenomethionine-labelled
notes: lamin A/C, human, residues 1-300 (head, coil 1a, L1, coil 1b, L12, first half of coil 2); Four protomers (chains A-D) in the asymmetric unit: two parallel coiled-coil dimers (A:B, C:D) packed anti-parallel; also called lamin 300 fragment; N-terminal half fragment of human lamin A/C; source: E. coli B834 (DE3), M9 medium with L-(+)-selenomethionine, purified (Ni-NTA, TEV, HiTrap Q, SEC); not …
B2: lamin 300 fragment, wild type (human lamin A/C residues 1–300), His tag cleaved (domain or fragment, UniProt P02545 1-300, looked up)
chain: T1 sequence (looked up)
notes: lamin A/C, human, residues 1-300; Mostly a dimer by SEC-MALS; also called WT; lamin 1–300 fragment; source: E. coli BL21 (DE3), purified (Ni-NTA, TEV, HiTrap Q, SEC); not shown: His tag, N-terminal, cleaved
B3: lamin 300 fragment A146C mutant (human lamin A/C residues 1–300), His tag cleaved (domain or fragment, UniProt P02545 1-300, looked up)
chain: T1 sequence (looked up) with A146C
modifications: disulfide bond through Cys146 in the non-reduced protein
notes: lamin A/C, human, residues 1-300; Non-reduced: partly a disulfide-linked tetramer; with TCEP: dimer (A146C^R); also called lamin 300 A146C; A146C variant; source: E. coli BL21 (DE3), purified (Ni-NTA, TEV, HiTrap Q, SEC); not shown: His tag, N-terminal, cleaved
B4: lamin 286–400 R388C mutant (domain or fragment, human, UniProt P02545 286-400, looked up)
chain: GAAHEELQQSRIRIDSLSAQLSQLQKQLAAKEAKLRDLEDSLARERDTSRRLLAEKEREMAEMRARMQQQLDEYQELLDIKLALDMEIHAYRKLLEGEEERLCLSPSPTSQRSRG
notes: lamin A/C, human, residues 286-400; runs at 14 kDa on SDS-PAGE; Reduced with 2 mM DTT and desalted before cross-linking; also called coil 2 (286–400) R388C; coil 2 R388C; source: E. coli BL21 (DE3), purified
B5: lamin 250–400 fragment (F3), without His tag (domain or fragment, human, UniProt P02545 250-400, looked up)
chain: AQHEDQVEQYKKELEKTYSAKLDNARQSAERNSNLVGAAHEELQQSRIRIDSLSAQLSQLQKQLAAKEAKLRDLEDSLARERDTSRRLLAEKEREMAEMRARMQQQLDEYQELLDIKLALDMEIHAYRKLLEGEEERLRLSPSPTSQRSRG
notes: lamin A/C, human, residues 250-400 (coil 2, residues 240-385, without its N-terminal ten residues); not called His-tagged there, so by the common procedure the tag would be cleaved; also called coil 2 fragment; C-terminal part of coil 2; source: E. coli BL21 (DE3), purified (Ni-NTA, TEV, HiTrap Q, SEC)
B6: His-F3 (His-tagged lamin A/C residues 250–400) (domain or fragment, human, UniProt P02545 250-400, looked up)
chain: B5 chain
notes: lamin A/C, human, residues 250-400; The plasmid also encodes a TEV site between the tag and the lamin residues (pProEx-HTa); also called his-tagged 250–400 fragment; coil 2 fragment; source: E. coli BL21 (DE3), purified (Ni-NTA, HiTrap Q, SEC; no TEV treatment); not shown: His tag, N-terminal, kept

Assays:
[1] = molecular target: the molecule itself; experiment: crystal structure; SeMet-labelled lamin 1-300, His tag cleaved, 7 mg/mL; 0.1 M Tris-HCl pH 8.5, 0.9 M LiCl, 7% PEG 8000, 14 °C; SAD, 3.2 Å
[2] = molecular target: the molecule itself; experiment: SEC-MALS; 2.5 mg/ml, Superdex 200 Increase 5/150 GL, non-reducing buffer Tris-HCl pH 8.0, 150 mM NaCl
[3] = molecular target: B2; experiment: cross-linking; sulfo-SMPB (0-250 μM) added to 20 μM lamin 300 and 286-400 R388C, 1 h, 20 mM HEPES pH 7.5, 50 mM NaCl, 1 mM EDTA; SDS-PAGE bands digested with chymotrypsin, MS/MS; conditions: both partners purified
[4] = molecular target: the molecule itself; experiment: as above
[5] = molecular target: T1, His-tagged lamin 300 fragment, wild …; experiment: pull-down; His-tagged lamin 300 (wild type, Y45C, L59R) on Ni-NTA resin; lamin 250-400 as prey; 20 mM Tris-HCl pH 8.0 with 50 or 150 mM NaCl; SDS-PAGE; conditions: both partners purified
[6] = molecular target: B3; experiment: pull-down; lamin 300 A146C coupled to CNBr-activated Sepharose; fragments at 66 μM; 20 mM Tris-HCl pH 8.0, 150 mM NaCl, non-reducing; Tris-blocked resin as control; SDS-PAGE; conditions: both partners purified
[7] = molecular target: T1, His-tagged lamin 300 fragment, wild …; experiment: ITC; His-lamin 300 (20 μM) in the cell, His-250-400 (160 μM) in the syringe; PBS, 25 °C, 19 injections of 2 μL; conditions: both partners purified
[8] = molecular target: T2, His-tagged lamin 300 fragment L59R …; experiment: as above; conditions: both partners purified
[9] = molecular target: B2; experiment: pull-down; His-F3 on Ni-NTA resin as bait; tag-cleaved lamin 300 proteins as prey; 20 mM Tris-HCl pH 8.0 with 150 or 50 mM NaCl, room temperature 30 min, wash with 20 mM imidazole; 2 mM TCEP for reduced A146C; SDS-PAGE; conditions: both partners purified
[10] = molecular target: B3; experiment: as above; conditions: both partners purified

Binder: B1
binding result [1]: binds

Binder: B2
stoichiometry N [2]: 2

Binder: B3
stoichiometry N [2]: 4 and 2

Binder: B4
binding result [3]: binds | binding result [4]: binds

Binder: B5
binding result [5]: binds | binding result [6]: binds

Binder: B6
binding result [7]: binds | fold higher binding affinity than the wild type (from KD values) [8]: ~40 fold | binding result [9]: binds | binding result [10]: binds
